Measured values as given in PMC7547722, “A versatile soluble siglec scaffold for sensitive and quantitative detection of glycan ligands” (Nature Communications, 2020).
“And” between values parts separate entries of the source, which are not always exact repeats. Identical values can stand only once.

B1: Sig-3 R119A: CD33-Fc essential arginine mutant (protein, UniProt P20138 18-259, looked up, variant R119A)
extracellular domain: DPNFWLQVQESVTVQEGLCVLVPCTFFHPIPYYDKNSPVHGYWFREGAIISRDSPVATNKLDQEVQEETQGRFRLLGDPSRNNCSLSIVDARRRDNGSYFFAMERGSTKYSYKSPQLSVHVTDLTHRPKILIPGTLEPGHSKNLTCSVSWACEQGTPPIFSWLSAAPTSLGPRTTHSSVLIITPRPQDHGTNLTCQVKFAGAGVTTERTIQLNVTYVPQNPTTGIFPGDGSGKQETRAGVVH
modifications: extracellular domain fused to human IgG1 Fc
notes: CD33-Fc essential arginine mutant
B2: Sig-16 R120A: Siglec-16-Fc essential arginine mutant (protein, UniProt A6NMB1 17-434, looked up, variant R120A)
extracellular domain: NKDPSYSLQVQRQVPVPEGLCVIVSCNLSYPRDGWDESTAAYGYWFKGRTSPKTGAPVATNNQSREVAMSTRDRFQLTGDPGKGSCSLVIRDAQREDEAWYFFAVERGSRVRHSFLSNAFFLKVTALTQKPDVYIPETLEPGQPVTVICVFNWAFKKCPAPSFSWTGAALSPRRTRPSTSHFSVLSFTPSPQDHDTDLTCHVDFSRKGVSAQRTVRLRVASLELQGNVIYLEVQKGQFLRLLCAADSQPPATLSWVLQDRVLSSSHPWGPRTLGLELPGVKAGDSGRYTCRAENRLGSQQRALDLSVQYPPENLRVMVSQANRTVLENLRNGTSLRVLEGQSLRLVCVTHSSPPARLSWTWGEQTVGPSQPSDPGVLQLPRVQMEHEGEFTCHARHPLGSQRVSLSFSVHCKSGPMTG
modifications: extracellular domain fused to human IgG1 Fc
notes: Siglec-16-Fc essential arginine mutant
B3: Siglec-9-Fc R120A (protein, UniProt Q9Y336 18-348, looked up, variant R120A)
extracellular domain: QTSKLLTMQSSVTVQEGLCVHVPCSFSYPSHGWIYPGPVVHGYWFREGANTDQDAPVATNNPARAVWEETRDRFHLLGDPHTKNCTLSIRDARRSDAGRYFFAMEKGSIKWNYKHHRLSVNVTALTHRPNILIPGTLESGCPQNLTCSVPWACEQGTPPMISWIGTSVSPLDPSTTRSSVLTLIPQPQDHGTSLTCQVTFPGASVTTNKTVHLNVSYPPQNLTMTVFQGDGTVSTVLGNGSSLSLPEGQSLRLVCAVDAVDSNPPARLSLSWRGLTLCPSQPSNPGVLELPWVHLRDAAEFTCRAQNPLGSQQVYLNVSLQSKATSGVTQG
modifications: extracellular domain fused to human IgG1 Fc

Columns and labels:
[1] = test system: K562 cells; assay: Flow cytometry, pre-complexed Siglec-Fc binding; assay type: cell-based; settings: Strep-Tactin-AF647, replicates
Experimental: (§1) Strep-Tactin-AF647 (0.55 μg/mL, 0.57 pmol), streptavidin (Biolegend), or anti-human igG1 (Biolegend) was added to Siglec supernatant (50 μL) or purified Siglec and allowed to sit at 4 °C for 15 min. After, the pre-complexed solution was added to cells in a 96-well U-bottom plate for 30 min at 4 °C. After, 200 μL of flow buffer (HBSS, 0.1% BSA, 5 mM EDTA) was added and the plate was spun down at 300 rcf for 5 min. The cells were resuspended in 200 μL of flow buffer and processed through the flow cytometer.
(§2) Flow cytometry was performed on a BD LSRFortessa™ X-20 cell analyzer using BD FACSDiva Software Version 8.0.1 and data was processed using FlowJo LLC. Version 9.9.6 and Graphpad Prism 8. The live, single cell populations were gated out with two gates to obtain the median fluorescence intensity (MFI), which indicates binding of the Siglec-Fc-secondary complex to the cell surface. Control cells that were incubated with Strep-Tactin-AF647 (0.55 μg/mL, 0.57 pmol) was used to determine the baseline fluorescence. Number of cells (# cells) plotted indicates percentage of max (% max).

[2] = test system: HuH7 cells; assay: Flow cytometry, pre-complexed Siglec-Fc binding; assay type: cell-based; settings: Strep-Tactin-AF647, replicates
Experimental: as §1, §2

[3] = test system: A549 cells; assay: Flow cytometry, pre-complexed Siglec-Fc binding; assay type: cell-based; settings: Strep-Tactin-AF647, replicates
Experimental: as §1, §2

[4] = test system: Jurkat cells; assay: Flow cytometry, pre-complexed Siglec-Fc binding; assay type: cell-based; settings: Strep-Tactin-AF647, replicates
Experimental: as §1, §2

[5] = test system: HEK293T cells; assay: Flow cytometry, pre-complexed Siglec-Fc binding; assay type: cell-based; settings: HEK; Strep-Tactin-AF647; replicates
Experimental: as §1, §2

[6] = test system: eosinophils (Siglec-8+); assay: Siglec ligands on peripheral blood immune cells, flow cytometry; assay type: cell-based, human; parameters: key: median fluorescence intensity (MFI) of Siglec-Fc complex binding; settings: replicate values
Experimental: (§3) Siglec supernatant (50 μL) or purified Siglec was incubated with cells in a 96-well U-bottom plate for 30 min at 4 °C. Following the incubation, 200 μL of flow buffer (HBSS, 0.1% BSA, 5 mM EDTA) was added and the plate was spun down at 300 rcf for 5 min. Strep-Tactin-AF647 (0.55 μg/mL, 50 μL, 0.57 pmol), streptavidin (Biolegend), or anti-human IgG1 (Biolegend) was added to the cells and incubated for 30 min at 4 °C. After, 200 μL of flow buffer (HBSS, 0.1% BSA, 5 mM EDTA) was added and the plate was spun down at 300 rcf for 5 min. The cells were resuspended in 200 μL of flow buffer and processed through the flow cytometer.
as §1
(§4) For human splenocytes, the sample was homogenized in media through a 40 µm filter (Corning) under sterile conditions. Samples were centrifuged at 300 rcf for 5 min. The resulting pellet from the spleen sample and whole human blood were treated with RBC lysis buffer (7 min) and centrifuged at 300 rcf and the RBC lysis was repeated twice more until no RBC remained in the pellet. Samples were treated with human Fc-receptor blocking agent (TruStain FX, Biolegend) in flow buffer (HBSS, 0.1% BSA, 5 mM EDTA). For analysis, the following cocktail was used: hSig8 (PerCP/Cy5.5, clone 7C9, Biolegend cat. no. 347108, 1:200), hCD123 (PE/Cy7, clone 6H6, Biolegend cat. no. 306010, 1:200), hCD19 (PE, clone SJ25C1, Biolegend cat. no. 363004, 1:200), hCD3 (FITC, BD Pharmingen cat. no. 555332, 1:50), hCD14 (BV605, clone M5E2, BD Horizon cat. no. 564056, 1:200), hCD15 (BUV395, clone HI98, BD Horizon cat. no. 563872, 1:200), hCD56 (BV510, clone NCAM16.2, BD Horizon cat. no. 563041, 1:200). For human peripheral blood samples, we additionally used hHLA-DR (APC-Cy7, clone L243, Biolegend cat. no. 307618, 1:200). Pre-complexed Siglec-Fc/Strep-Tactin-AF647 (described above) was added to the antibody cocktail, added to cells, and allowed to stain at 4 °C for 45 min. The cells were then centrifuged at 300 rcf for 5 min and resuspended in flow buffer containing 1 µg/mL propidium iodide prior to analysis by flow cytometry.
as §2

[7] = test system: monocytes (CD14+); assay: as above; assay type: cell-based, human; parameters: key: median fluorescence intensity (MFI) of Siglec-Fc complex binding; settings: replicate values
Experimental: as §3, §1, §4, §2

[8] = test system: basophils (CCR3+); assay: as above; assay type: cell-based, human; parameters: key: median fluorescence intensity (MFI) of Siglec-Fc complex binding; settings: replicate values
Experimental: as §3, §1, §4, §2

[9] = test system: MCF7; assay: Flow cytometry, pre-complexed Siglec-Fc binding to breast cancer cell line; assay type: cell-based; settings: Strep-Tactin-AF647, replicates
Experimental: as §1, §2

[10] = test system: MDA-MB-231; assay: as above; assay type: cell-based; settings: Strep-Tactin-AF647, replicates
Experimental: as §1, §2

[11] = test system: ZR-75-1; assay: as above; assay type: cell-based; settings: Strep-Tactin-AF647, replicates
Experimental: as §1, §2

[12] = test system: T47D; assay: as above; assay type: cell-based; settings: Strep-Tactin-AF647, replicates
Experimental: as §1, §2

[13] = test system: MDA-MB-468; assay: as above; assay type: cell-based; settings: Strep-Tactin-AF647, replicates
Experimental: as §1, §2

[14] = test system: BT549; assay: as above; assay type: cell-based; settings: Strep-Tactin-AF647, replicates
Experimental: as §1, §2

[15] = test system: HS578T; assay: as above; assay type: cell-based; settings: Strep-Tactin-AF647, replicates
Experimental: as §1, §2

[16] = test system: U937 cells; assay: Flow cytometry, Siglec-Fc pre-complexed with Strep-Tactin, streptavidin or anti-human IgG1; assay type: cell-based; settings: U937; Strep-Tactin-AF647; replicates, Fig. 2
Experimental: as §1, §2

[17] = test system: NK cells (CD56+); assay: Siglec ligands on peripheral blood immune cells, flow cytometry; assay type: cell-based, human; settings: replicate values
Experimental: as §4, §2

[18] = test system: T-cells (CD3+); assay: as above; assay type: cell-based, human; settings: replicate values
Experimental: as §4, §2

[19] = test system: B-cells (CD19+); assay: as above; assay type: cell-based, human; settings: replicate values
Experimental: as §4, §2

[20] = test system: neutrophils (CD15+); assay: as above; assay type: cell-based, human; settings: replicate values
Experimental: as §4, §2

[21] = test system: pDCs (CD123high/HLA-DR+); assay: as above; assay type: cell-based, human; settings: pDC; replicate values
Experimental: as §4, §2

[22] = test system: cDCs (CD123dim/HLA-DR+); assay: as above; assay type: cell-based, human; settings: cDC; replicate values
Experimental: as §4, §2

[23] = test system: neutrophils (CD15+), human splenocytes; assay: Siglec-Fc (CD22-Fc V1/V2, with or without Fc receptor block) binding to splenocytes, flow cytometry; assay type: cell-based; settings: Suppl Fig 12; three replicate columns
Experimental: as §4, §2

[24] = test system: monocytes (CD14+), human splenocytes; assay: Siglec-Fc binding to splenocytes, flow cytometry; assay type: cell-based; settings: Suppl Fig 12; three replicate columns
Experimental: as §4, §2

[25] = test system: NK cells (CD56+), human splenocytes; assay: Siglec-Fc binding to splenocytes, flow cytometry; assay type: cell-based; settings: Suppl Fig 12; three replicate columns
Experimental: as §4, §2

[26] = test system: B-cells (CD19+), human splenocytes; assay: Siglec-Fc binding to splenocytes, flow cytometry; assay type: cell-based; settings: Suppl Fig 12; three replicate columns
Experimental: as §4, §2

[27] = test system: T-cells (CD3+), human splenocytes; assay: Siglec-Fc binding to splenocytes, flow cytometry; assay type: cell-based; settings: Suppl Fig 12; three replicate columns
Experimental: as §4, §2

[28] = test system: peripheral blood immune cells; assay: Comparison of 2-step and pre-complexed Siglec-Fc binding, flow cytometry (Figure 3e-g); assay type: cell-based, human; settings: Figure 3g

Molecule	binding of pre-complexed Siglec-Fc (MFI) [1]	binding of pre-complexed Siglec-Fc (MFI) [2]	binding of pre-complexed Siglec-Fc (MFI) [3]	binding of pre-complexed Siglec-Fc (MFI) [4]	binding of pre-complexed Siglec-Fc (MFI) [5]	Siglec-Fc binding (Figure 3d) [6]	Siglec-Fc binding (Figure 3d) [7]	Siglec-Fc binding (Figure 3d) [8]	binding of pre-complexed Siglec-Fc (MFI) [9]	binding of pre-complexed Siglec-Fc (MFI) [10]	binding of pre-complexed Siglec-Fc (MFI) [11]	binding of pre-complexed Siglec-Fc (MFI) [12]	binding of pre-complexed Siglec-Fc (MFI) [13]	binding of pre-complexed Siglec-Fc (MFI) [14]	binding of pre-complexed Siglec-Fc (MFI) [15]	binding of pre-complexed Siglec-Fc (MFI) [16]	Siglec-Fc binding (Figure 3d) [17]	Siglec-Fc binding (Figure 3d) [18]	Siglec-Fc binding (Figure 3d) [19]	Siglec-Fc binding (Figure 3d) [20]	other results
B1	73.5 and 79.6 and 81.1	85.3 and 88.8 and 87.9	196 and 195 and 188	101 and 105 and 109	86.5 and 94.1 and 92.2	15.4 and -50.1 and 11.6	74.5 and -10.3 and 64.2	73.2 and 10.3 and 39.8	107 and 105 and 113	133 (2×) and 138	212 and 223 and 240	88.8 and 95.2 (2×)	85.3 and 88 and 88.8	140 and 148 and 151	127 (2×) and 130	103 and 139 and 125	3.81 and -14.1 and 12.8	11.6 and -14.1 and 8.98	147 and 5.13 and 27	27 and -33.4 and 14.1	Siglec-Fc binding (Figure 3d) [21]: 43.6 and 23.1 and 53.9; Siglec-Fc binding (Figure 3d) [22]: 28.2 and -2.85 and 34.7; Binding, Neutrophils [23]: 20.7 and 30.4 and 24.9; Binding, Monocytes [24]: 22.5 and 51.6 and 43.8; Binding, NK [25]: 16.9 and 14.2 and 13.6; Binding, B-cells [26]: 24.9 and 27 and 31.3; Binding, T-cells [27]: 9.87 and 7.5 and 8.87
B2	80.4 and 84.2 and 88.7	131 and 130 and 128	103 (2×) and 108	74.2 and 80.5 and 83	70.6 and 77.5 and 78.9	41.1 and 56.9 and 14.4	46.2 and 59 and 12.8	82.2 and 51.9 and 97	102	111 and 118 and 117	171 and 183 and 144	75.5 and 80.8 and 81.8	81.8 and 84.5 and 83.4	124 and 130 and 128	116 and 119 and 110	90.2 and 97.8 and 102	38.5 and 45.7 and 13.8	25.7 and 12.5 and 15.5	32.1 and 52.6 and -2.57	44.9 and 39.4 and 8.1	Siglec-Fc binding (Figure 3d) [21]: 74.5 and -8.98 and 57.8; Siglec-Fc binding (Figure 3d) [22]: 66.8 and -25.7 and 30.8; Binding, Neutrophils [23]: 16.1 and 20.7 and 14.4; Binding, Monocytes [24]: 17.2 and 15.5 and 13.2; Binding, NK [25]: -1.72 and -0.57 and 2.3; Binding, B-cells [26]: 9.76 and 13.2 and 11.5; Binding, T-cells [27]: -5.17 and -4.02 and -2.3
B3	–	–	–	–	–	–	–	–	–	–	–	–	–	–	–	–	–	–	–	–	Siglec-9-Fc Binding ([28]; 2-Step): 43.3 and 45.1 and 40.9; Siglec-9-Fc Binding ([28]; Precomplex): 42 and 53.2 and 47.5
